Laboratory results as given in patent US20020077295A1.
Where no end group is shown, it is not given here.

Molecular target: Nogo binding sites (axonal Nogo receptors) on chick dorsal root ganglion neurons (chick)
Test: competition with 10 nM AP-Nogo binding to chick E12 DRG neurons (FIG. 3b)

Ki: 150 nM
Binder: RIYKGVIQAIQKSDEGHPFRAYLESEVAISEELVQKYSNS (not fully specified) [Pep2-41 (2-41 fragment of Nogo)]
